5 sequences from the supplement of paper PMC5998384 can be followed below.

For data set [1], the system named is HeLa Kyoto. Nature of the data set: solubility in G1/S (NP-40 vs SDS abundance) (log2 ratio); higher = more soluble. To be noted: cell cycle stage: G1/S.
Data set [2] has as its system HeLa Kyoto. Nature of the data set: melting temperature (median over replicates), in situ; higher = more thermally stable.
In data set [3] the test system is HeLa Kyoto. The experiment in a line: solubility change mitosis vs G1/S (difference of NP-40 vs SDS log2 ratios) (log2 ratio difference); higher = more soluble in mitosis.
For data set [4], the system named is HeLa Kyoto. Nature of the data set: thermal stability score vs G1/S (z-score of summed log2 fold changes over temperatures); higher = more thermally stable than in G1/S.
The mark [5] stands for this setting: cell cycle stage: early G1 (4.5 h after nocodazole release).
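For melting temperature (median over replicates), in situ in this document: HeLa Kyoto cells synchronized by double thymidine or nocodazole block, proteins quantified by TMT10plex mass spectrometry, three independent biological replicates.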
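For solubility change mitosis vs G1/S (difference of NP-40 vs SDS log2 ratios) in this document: synchronized HeLa Kyoto cells (double thymidine block for G1/S, nocodazole release for mitosis), protein amounts in NP-40 versus SDS lysates quantified by mass spectrometry, three biological replicates.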
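For solubility in G1/S (NP-40 vs SDS abundance) in this document: HeLa Kyoto cells arrested at G1/S by double thymidine block, proteins quantified by TMT10plex mass spectrometry in mild NP-40 versus SDS extracts, three biological replicates.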
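For thermal stability score vs G1/S (z-score of summed log2 fold changes over temperatures) in this document: synchronized HeLa Kyoto cells, proteins quantified by TMT10plex mass spectrometry, three biological replicates, mitosis taken 0.5 h after nocodazole release, G1/S directly after double thymidine block.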

For “MTSMASLFSFTSPAVKRLLGWKQGDEEEKWAEKAVDALVKKLKKKKGAMEELEKALSSPGQPSKCVTIPRSLDGRLQVSHRKGLPHVIYCRVWRWPDLQSHHELKPLDICEFPFGSKQKEVCINPYHYKRVESPVLPPVLVPRHNEFNPQHSLLVQFRNLSHNEPHMPQNATFPDSFHQPNNTPFPLSPNSPYPPSPASSTYPNSPASSGPGSPFQLPADTPPPAYMPPDDQMGQDNSQPMDTSNNMIPQIMPSISSRDVQPVAYEEPKHWCSIVYYELNNRVGEAFHASSTSVLVDGFTDPSNNKSRFCLGLLSNVNRNSTIENTRRHIGKGVHLYYVGGEVYAECLSDSSIFVQSRNCNFHHGFHPTTVCKIPSSCSLKIFNNQEFAQLLAQSVNHGFEAVYELTKMCTIRMSFVKGWGAEYHRQDVTSTPCWIEIHLHGPLQWLDKVLTQMGSPLNPISSVS [SMAD5]”, in the data set with HeLa Kyoto [1], the “solubility in G1/S (log2)” value was -0.0752. The melting temperature in the data set on HeLa Kyoto [2] (cell cycle stage: G1/S) worked out at 50.3 °C; in the data set with HeLa Kyoto [2] (cell cycle stage: mitosis) it was 50 °C. Moreover, in the data set with HeLa Kyoto [3], the “solubility change mitosis (log2)” value was -0.0922. The thermal stability score came to 0.616 in the data set with HeLa Kyoto [4] (setting [5]) and 0.53 in the data set with HeLa Kyoto [4] (cell cycle stage: mitosis).
On to “MTSMTQSLREVIKAMTKARNFERVLGKITLVSAAPGKVICEMKVEEEHTNAIGTLHGGLTATLVDNISTMALLCTERGAPGVSVDMNITYMSPAKLGEDIVITAHVLKQGKTLAFTSVDLTNKATGKLIAQGRHTKHLGN [ACOT13]”, for which the “solubility in G1/S (log2)” value with HeLa Kyoto [1] stood at 0.372. The melting temperature came out at 56.4 °C in the data set on HeLa Kyoto [2] (cell cycle stage: G1/S) and 57.7 °C in the data set with HeLa Kyoto [2] (cell cycle stage: mitosis). Further, the “solubility change mitosis (log2)” value in the data set on HeLa Kyoto [3] is -0.0848. The thermal stability score is -1.62 in the data set with HeLa Kyoto [4] (setting [5]) and -1.82 in the data set with HeLa Kyoto [4] (cell cycle stage: mitosis).
In the case of “MTSPAAAQSREIDCLSPEAQKLAEARLAAKRAARAEAREIRMKELERQQKEEDSERYSRRSRRNTSASDEDERMSVGSRGSLRVEERPEKDFTEKGSRNMPGLSAATLASLGGTSSRRGSGDTSISIDTEASIREIKELNELKDQIQDVEGKYMQGLKEMKDSLAEVEEKYKKAMVSNAQLDNEKTNFMYQVDTLKDMLLELEEQLAESRRQYEEKNKEFEREKHAHSILQFQFAEVKEALKQREEMLEKHGIILNSEIATNGETSDTLNNVGYQGPTKMTKEELNALKSTGDGTLGRASEVEVKNEIVANVGKREILHNTEKEQHTEDTVKDCVDIEVFPAGENTEDQKSSEDTAPFLGTLAGATYEEQVQSQILESSSLPENTVQVESNEVMGAPDDRTRTPLEPSNCWSDLDGGNHTENVGEAAVTQVEEQAGTVASCPLGHSDDTVYHDDKCMVEVPQELETSTGHSLEKEFTNQEAAEPKEVPAHSTEVGRDHNEEEGEETGLRDEKPIKTEVPGSPAGTEGNCQEATGPSTVDTQNEPLDMKEPDEEKSDQQGEALDSSQKKTKNKKKKNKKKKSPVPVETLKDVKKELTYQNTDLSEIKEEEQVKSTDRKSAVEAQNEVTENPKQKIAAESSENVDCPENPKIKLDGKLDQEGDDVQTAAEEVLADGDTLDFEDDTVQSSGPRAGGEELDEGVAKDNAKIDGATQSSPAEPKSEDADRCTLPEHESPSQDISDACEAESTERCEMSEHPSQTVRKALDSNSLENDDLSAPGREPGHFNPESREDTRGGNEKGKSKEDCTMS [LRRFIP1]”, the “solubility in G1/S (log2)” value with HeLa Kyoto [1] was 0.265. The melting temperature in the data set with HeLa Kyoto [2] (cell cycle stage: G1/S) worked out at 58.7 °C. Also, the “solubility change mitosis (log2)” value in the data set with HeLa Kyoto [3] was determined as 0.0557. Moreover, the thermal stability score with HeLa Kyoto [4] (setting [5]) was -2.05; in the data set with HeLa Kyoto [4] (cell cycle stage: mitosis) it was -2.56.
“MTSRFGKTYSRKGGNGSSKFDEVFSNKRTTLSTKWGETTFMAKLGQKRPNFKPDIQEIPKKPKVEEESTGDPFGFDSDDESLPVSSKNLAQVKCSSYSESSEAAQLEEVTSVLEANSKISHVVVEDTVVSDKCFPLEDTLLGKEKSTNRIVEDDASISSCNKLITSDKVENFHEEHEKNSHHIHKNADDSTKKPNAETTVASEIKETNDTWNSQFGKRPESPSEISPIKGSVRTGLFEWDNDFEDIRSEDCILSLDSDPLLEMKDDDFKNRLENLNEAIEEDIVQSVLRPTNCRTYCRANKTKSSQGASNFDKLMDGTSQALAKANSESSKDGLNQAKKGGVSCGTSFRGTVGRTRDYTVLHPSCLSVCNVTIQDTMERSMDEFTASTPADLGEAGRLRKKADIATSKTTTRFRPSNTKSKKDVKLEFFGFEDHETGGDEGGSGSSNYKIKYFGFDDLSESEDDEDDDCQVERKTSKKRTKTAPSPSLQPPPESNDNSQDSQSGTNNAENLDFTEDLPGVPESVKKPINKQGDKSKENTRKIFSGPKRSPTKAVYNARHWNHPDSEELPGPPVVKPQSVTVRLSSKEPNQKDDGVFKAPAPPSKVIKTVTIPTQPYQDIVTALKCRREDKELYTVVQHVKHFNDVVEFGENQEFTDDIEYLLSGLKSTQPLNTRCLSVISLATKCAMPSFRMHLRAHGMVAMVFKTLDDSQHHQNLSLCTAALMYILSRDRLNMDLDRASLDLMIRLLELEQDASSAKLLNEKDMNKIKEKIRRLCETVHNKHLDLENITTGHLAMETLLSLTSKRAGDWFKEELRLLGGLDHIVDKVKECVDHLSRDEDEEKLVASLWGAERCLRVLESVTVHNPENQSYLIAYKDSQLIVSSAKALQHCEELIQQYNRAEDSICLADSKPLPHQNVTNHVGKAVEDCMRAIIGVLLNLTNDNEWGSTKTGEQDGLIGTALNCVLQVPKYLPQEQRFDIRVLGLGLLINLVEYSARNRHCLVNMETSCSFDSSICSGEGDDSLRIGGQVHAVQALVQLFLERERAAQLAESKTDELIKDAPTTQHDKSGEWQETSGEIQWVSTEKTDGTEEKHKKEEEDEELDLNKALQHAGKHMEDCIVASYTALLLGCLCQESPINVTTVREYLPEGDFSIMTEMLKKFLSFMNLTCAVGTTGQKSISRVIEYLEHC [WAPL]”: the “solubility in G1/S (log2)” value in the data set with HeLa Kyoto [1] is -0.00224. The melting temperature with HeLa Kyoto [2] (cell cycle stage: G1/S) came to 48.1 °C; with HeLa Kyoto [2] (cell cycle stage: mitosis), 49.9 °C. In the data set on HeLa Kyoto [3], the “solubility change mitosis (log2)” value is -0.133. The thermal stability score came to 0.873 in the data set with HeLa Kyoto [4] (setting [5]) and 2.77 with HeLa Kyoto [4] (cell cycle stage: mitosis).
Consider “MTSSRLWFSLLLAAAFAGRATALWPWPQNFQTSDQRYVLYPNNFQFQYDVSSAAQPGCSVLDEAFQRYRDLLFGSGSWPRPYLTGKRHTLEKNVLVVSVVTPGCNQLPTLESVENYTLTINDDQCLLLSETVWGALRGLETFSQLVWKSAEGTFFINKTEIEDFPRFPHRGLLLDTSRHYLPLSSILDTLDVMAYNKLNVFHWHLVDDPSFPYESFTFPELMRKGSYNPVTHIYTAQDVKEVIEYARLRGIRVLAEFDTPGHTLSWGPGIPGLLTPCYSGSEPSGTFGPVNPSLNNTYEFMSTFFLEVSSVFPDFYLHLGGDEVDFTCWKSNPEIQDFMRKKGFGEDFKQLESFYIQTLLDIVSSYGKGYVVWQEVFDNKVKIQPDTIIQVWREDIPVNYMKELELVTKAGFRALLSAPWYLNRISYGPDWKDFYIVEPLAFEGTPEQKALVIGGEACMWGEYVDNTNLVPRLWPRAGAVAERLWSNKLTSDLTFAYERLSHFRCELLRRGVQAQPLNVGFCEQEFEQT [HEXA]”, for which the “solubility in G1/S (log2)” value with HeLa Kyoto [1] stood at 0.295. Further, the melting temperature came to 56.7 °C in the data set on HeLa Kyoto [2] (cell cycle stage: G1/S) and 56.1 °C in the data set with HeLa Kyoto [2] (cell cycle stage: mitosis). In addition, in the data set on HeLa Kyoto [3], the “solubility change mitosis (log2)” value was -0.164. Also, the figures for the thermal stability score with HeLa Kyoto [4] (setting [5]) and in the data set on HeLa Kyoto [4] (cell cycle stage: mitosis) were 0.922 and 0.624, respectively.
